Results on 1 protein are retold here after patent publication US20110091450.

This data set concerns the target mouse MBL (mannose-binding lectin of mouse serum, bound to mannan).

B1: recombinant mouse MASP-2 (rMASP-2) (protein)
chain: TLLGSKWPEPVFGRLVSPGFPEKYADHQDRSWTLTAPPGYRLRLYFTHFDLELSYRCEYDFVKLSSGTKVLATLCGQESTDTEQAPGNDTFYSLGPSLKVTFHSDYSNEKPFTGFEAFYAAEDVDECRVSLGDSVPCDHYCHNYLGGYYCSCRAGYILHQNKHTCSALCSGQVFTGRSGYLSSPEYPQPYPKLSSCTYSIRLEDGFSVILDFVESFDVETHPEAQCPYDSLKIQTDKGEHGPFCGKTLPPRIETDSHKVTITFATDESGNHTGWKIHYTSTARPCPDPTAPPNGSISPVQATYVLKDRFSVFCKTGFELLQGSVPLKSFTAVCQKDGSWDRPMPECSIIDCGPPDDLPNGHVDYITGPQVTTYKAVIQYSCEETFYTMSSNGKYVCEADGFWTSSKGEKLPPVCEPVCGLSTHTIGGRIVGGQPAKPGDFPWQVLLLGQTTAAAGALIHDNWVLTAAHAVYEKRMAASSLNIRMGILKRLSPHYTQAWPEEIFIHEGYTHGAGFDNDIALIKLKNKVTINGSIMPVCLPRKEAASLMRTDFTGTVAGWGLTQKGLLARNLMFVDIPIADHQKCTTVYEKLYPGVRVSANMLCAGLETGGKDSCRGDSGGALVFLDNETQRWFVGGIVSWGSINCGAAGQYGVYTKVINYIPWNENIISNF
Take B1: the “C4 deposition on mannan-coated wells (sMAP-/- mouse serum)” value is “the amount of C4 was restored by up to 46% of that of wild-type serum in a dose-dependent manner and reached a plateau (FIG. 25B)”.
